Results from the nanobody polyreactivity screen of Harvey et al. (2022).

assay: yeast display, Sf9 membrane polyspecificity reagent, FACS + sequencing; frameworks hold sequencing errors
Outline: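 Using colony PCR, genes from sorted yeast display clones were amplified, then sequenced on MiSeq at 2 × 250 and filtered by CDR length. The clones had been stained with 10% biotinylated, detergent-solubilized Sf9 membrane reagent for 1 hour at 4 °C and sorted by FACS into low and high (top ~1%) gates on anti-HA and streptavidin fluorescence. Polyreactivity labels come from the gate of origin.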

Sequence	polyreactivity (PSR sort gate)
QVQLVESGGVLVQAGGSLRLSCAASGFTFWSYAMGWYRQAPGKERELVAAISSGDNTYYADSVKGRFTISRDNAKNTVYLQMNSLKPEDTAVYYCNAFYYYEYDYWGQGTQVTVSS	low polyreactivity
QVQLVESGGGLVQAGGSLRLSCAASGLTFGYYTMGWYRQAPGKERELVAAITYSGGSTYYADSVKGRFTISRDNAKNSVYLQMYSLKPEDTAVYYCAADGPVYTTYEYWGQGTQVTVSS	low polyreactivity
QVQLVESGGGLVQAGGSLRLSCAASGSIFSTYTMGWYRQAPGKERELVAGISKSGGSTYYADSVKGRFTISRDNAKNTVYLQMNSLKPEDTAVYYCAAPVPKTDKLLRMYYWGQGTQVTVSS	high polyreactivity
QVQLVESGGGLVQAGGSLRLSCAASVFLPYTMGWYRQAPGKERELVAAITRGGSTYYADSVKGRFTISRDNAKNTVYLQMNSLKPEDTAVYYCAKRSTFAWRGYDYWGQGTEVTVSS	high polyreactivity
QVQLVESGGGLVQAGGSLRLSCAASGAIFPSYVMGWYRPAPGKERELVAAITKSTGTTYYADSVKGRFTISRDNAKNTVYLQMNSLKPEDTAVYYCAASGSWSTNTAIYKFYYWGQGTQVTVSS	low polyreactivity
QVQLVESGVGLVQAGGSLRLRCAASGSTFIVYALRWSRQAPGKERELVAAISWNGGRTYYADSVKGRFTISRDNAKKTVYLQMNSLKPEDTAVYYCPATLYNTEDDYWGQGTQVTLSS	low polyreactivity
QVQLVESGGVLGQAGGSLRLSCAPSGSLIGGYAMGWYRQAPGKQRELVAAISYRGATTYYADSVKGRFTISRDNSKNTVYFQMNSLKPEDTAVYYCDVAARTRARVLYGYDYGGQGTQVTVSS	low polyreactivity
QVQLVESGGGLVQAGGSLRLSCAASGSIFLPNAMGWYRQAPGKEWELVAAISWSGGSTYADSVKGRFTISRDNAKNTVYLQMNSLKPEDTAVYYCAADDGFTPRDLYVGYDYWGLGTQVTVSS	low polyreactivity
QVQLVESGGGLVQAGGSLRLSCAASGFIFRYYAMGWYRQAPGKERELVAAITWSGGSTYYADSVKGRFTISRDNAKNTVYLQMNSLKPEDTAVYYCAADLYYFRYPGYDYWGQGTQVTVSS	high polyreactivity
QVQLVESGGGLVQAGGSLRLSCAASGSIFRQNVMGWYRQAPGKERELVAAISRNGGSTYYADSVKGRFTISRDNAKNTVYFQMNSLKPEDTGVYYCAARGFRRYDYWGQGTQVTVSS	high polyreactivity
QVQLVESGGGLVQAGGSLRLSCAASGIIFFYYVMGWYRQAPGKERELVAAISSDGSSTYYADSVKGRFTISRDNAKNTVNLQMNSQKPEDTAVYYCAAELILYPYDFNFWGQGTQVTVSS	high polyreactivity
QVHRVESGGGLVQAGGSLRLSCDASGNIFYDYAMGWYRQGPGKERELVAAIDLSDGSTYYSDSVKGRFTISRDNAKNTVYFQMNSLKPDDTAVYYCAADIIAAWTSDYYYWGQGSQVTVSS	high polyreactivity
QVQLVESGGGLVQAGGSLRLSCAASGRIFGGNAMGWYRQAPGKERELVAAITSGGGSTSYADSVKGRFTISRDNAKNTVYLQMNSLKPEDTAVYYCAAPATYGPFVIDTVYPRDGYWGQGTQVTVSS	low polyreactivity
QVQLVESGGGLVKAGGSLRLSCAASGRIFRYYAMGRYRQAPGKEREFVAAISTDGGRTYYADSVKGRFTISRDNAKNTVYLQMNSLKPEDTAVYYCAIYPGISGYNYWGQGTQVTVSS	high polyreactivity
QVQLVESGGGLVQAGGSLRLSCAASGYTFGSYAMGWYRQAPGKERELVAAISGGGSTNYADSVKGRFTISRDNAKNTVYLQMNSLKPEDTAVYYCAAYPYLYPLRFEEYDHWGQGTQVTVSS	low polyreactivity
QVQLVESGGGLVQAGGSLRLSCAASGRTFSRNAMGWYRQAPGKERELVAAITSRGGTTYYADSVKGRFTISRDNAKNTVYLQMNSLKPEDTAVYYCNAAPRARSKVSYDYWGQGTQVTVSS	high polyreactivity
QVQIVESGGGLVQAGGSLRISCAASGSTFPRNVMGWYRQAPGKERELVAAITSSGGSTYYADSVKGRFTISRDNAQHTVYLQMNSLKPADTAVYYCNAVSYYLGDDYWGQGTQVTVSS	high polyreactivity
QVQLVESGGGLVQAGGSLRLSCAASGRIFTFYAMGWYRQAPGKERELVARISKRGGSTYYADSVKGRFTISRDYAKNTVYLQRNSLKPEDTAVYYCAKAYDPTTYDYWGQGTQVTVSS	high polyreactivity
QVQLVESGGGLVQAGGSLRLSCAASGSIFHIYMGGYRQAPGKERELVASMSYRGGTTYYADSVKGRFTISRDNAKNTVYLQKNSLKPEDTAVYYCNVHRDFYHYGRYGHMDYWGQGC	low polyreactivity
QVQLVESGGGLVQAGGSLRLSCAASGSIFTRYAMGWYRQAPGKERELVAAISQSGGNTYYADSVKGRFTISRDNAKNTVYLQMNSLKPEDTAVYYCAARWPWTHTRGYWGQGTQVTVSS	high polyreactivity
QVLLQESGGGLVQAGGSLRLSCAASGNIFSAGGMGWYRQAPVKELELVAGIGTGTSTNYADSVKGRFTISRDNAKNTVYLQMNSLKPEDTAVYYCAADSYPAYLGFVGFDYWGQGTQVNVSS	low polyreactivity
QVQLVESGGGLVQAGGSLRLSCAASGSTFGHYAMRSYRQAPGKERQLVAGITDTDNHELRRLCEGRFTISRDNAKNTVYLQMNSLKPEDTAVYDCDAGSNAVFYDYGYWGQGTQVTVSS	low polyreactivity

Sequence	polyreactivity (PSR sort gate)
QVQLVESGGGLVQAGGSLRLSCAASGSTFQSNAMGWYRQAPGTEREMVATITRGGGTSYADSVKGRFTISRDNAKNTVYVQMNSLQPEDTAVYYCNARRQRYYTQGRFYYWGQGTQVTVSS	high polyreactivity
QVQLVESGGGLVQAGGSLRLSCAASGSIFWRNTMGWYRQAPGKEREFVAAISSNGGGTYYADSVKGRFTISRDKAKNTVYLQTNSLKPEDTAVYYFAATAGGSYKLWYYYWGQGTQVTVSS	high polyreactivity
QVQLVESGGGLVQAGGSLRLSCAASGSIFGRNAMGWYRHAPGKERELVARISSRGGSTYYADSVKGRFTISRDNAKKTVYLQMNSLKPEDTAVYYCNRDRTWQTNDYWGQGTQVTVSS	high polyreactivity
QVQLVESGGGLVQAGGSLRLSCAASGRIFRQNAMGWYRQAPGKERELVAAIDWNGTSTYADSVKGRFTISRDNAKNTVYLQMNSLKPEDTAVYYCNASESKPTFEYDYWGQGTQVTVSS	low polyreactivity
QVQLVESAGGLVQAGVSRRLSFAASGSIFGDYAMGWYRQAPGTERELVATITWIGGSTYYADSVKGRFTISRDNAKNTVYLQMNSLIPEDTAVYYCAATKYVDVKYYYWGQGTQVTLSS	low polyreactivity
QDQLVESGGGLVQAGGSLRLSCAASGFIFLPYVMGWYRQAPGKERELVAAISGGGGITYYADSVKGRFTISRDNAKNTVYLQMNSLKPEDTAVYYCAARRQRFGYWGQGTQVTVSS	low polyreactivity
QVQLVESGGGLVQAGGSLRLSCAASGRIFDIYGMGWYRQAPGKERELVAAITSGGSTYYADSVKGRFTISRDNAKNTVYLQMNSLKPEDTAVYYCAADSVLLKDTGYDYWGQGTQVTVSS	low polyreactivity
QVQLVESGGGLVQAGGSLRLSCAASGRTLLAYAMGWYRQAPGKEREFVAAISSRGVRTYYADSVKGRFTISRDNAKNTVYLQMNSLKPEDTAVYYCATRGTKSIKDVPGFRYGYWGQGTQVTVSS	high polyreactivity
QVQLVESGGGLVQAGGSLRLSCAASGITFLRYAMGWYRQAPGKERELVATIRTGGTTNYADSVKGRFTISRDNAKNTVYLLMISLKPEDTAVYYCAVDWSRQAHKFNYWGQGTQVTVSS	high polyreactivity
QVQLVESGGGIVQAGGSLRLSCAASGSIFADYAMGWYRQAPGKERELVAVISRRGGTTYYADSVKGRFTISRDNAKNSVYLQMNSLKPEDTAVYYCAARRSFNEYDYWGQGTQVTVSS	high polyreactivity
QVQLVESGGGLVQAGGSLRLSCAASGRIFRGYAMGWYRPAPGKERELVAAINWSGGSTDYADSVKGRFTISRDYAKNTVYLQMNSLKPEDTAVYYCSTSTCRGYSWGHGTQVTVSS	high polyreactivity
QVQLVESGGGLVQAGGSLRLSCAASGNIFYYNAMGWYRQAPGKETELVADITWSGGSTYYADSVKGRFTISRDNAKNTVDLQMNSLKPEDTAVYYCADETFGYHRGRIADDYEYWGQGTQVTVSS	low polyreactivity
QVQLVESGGGLVQAGGSLRLSCAASGSTFGNYAMAWYRQAPGKERELVATISRSGGSTYYADSVKGRFTISRDNAKNTVYLLMNSLKPEDTAVYYCNRRYYTRKPDYNSWGQGTQVTVSS	high polyreactivity
QVQLVESGGGLVQAGGSLRLSCAASGRTFGLYTKAWYIQAPGKERELVAAISSGGITYYADSVKGRFTISRDNAKNTVYLQMNSLKPEDTAVYYCAADFRTTRRYNYRYNYWGQGTQVTVSS	high polyreactivity
QVELVESGGGLDQAGGSLRLSCAASGFIFRWYAMGWYRQAPGKERELVAAITRGTRTNYADSVKGRFTISRDNAKNTVYLQMNSLKPEDTAVYYCAADFSRDAYRNYYYWGQGTQVTVSS	high polyreactivity
QVQLVESGGGLVQAGGSIRLSCAASGRTFPAYAMGWYRQAPGKERELVAAISYSGGRTRYADSVKGRFTISRDNAKYTVYLQMNSLKPEDTAVYYCNRVIPTQSLRDYYWGQGTQVTVSS	high polyreactivity
QVQLVESGGGLVQAGGSLRLSCAASGSTIAGNAMGWYRQAPGKERELVAVITRGGSTNYADSVKGRFTISRDNAKNTVSLQMNSLKPEDTAVYYCARYRFLLDYWRGGYYWGQGTQVTVSS	high polyreactivity
QVQLVESGGGLVQAGGSLRLRCAASGSTFAYYAMGWYRQAPGKDRELVARIRSSGVSTYYADSVKGRFTISRDNPNNTVSLQMNTLKPEDTAGYYCHTAYAGVRYDSWGQGTQVTVSS	low polyreactivity
QVQLVESGGGLVQAGGSLRLSCAASGSTFVPNAMGWYRQAPGKEREFVAAIRVSGDNTYYADSVKGRFTISRDNAKNTVYLQMNSLKPEDTGVYYCAATGTVLGSVDYWGQGTQVTVSS	low polyreactivity
QDQLVESGGGLVQAGGSLRLTCAASGITFYRYAMGWYRQAPGKERELVAAITSGGRTNYADSVKGRFTISRDNAKNTVYLQMNSMKPEDTAVYYCGARLVRESEPLGYWGQGTQVTVSS	high polyreactivity
QVQLVESGGGLVQAGGSLRLSCAASGFTFYSNAMGWYRQAPGKERELVAAINWGGGSTYYADSVKGRFTISRDNAKNTVNLQMNSLKPEDTAVYYCAAEPIWEYWNGVSYAYDYWGQGTQVTVSS	low polyreactivity
